From patent US20260234247A1 (published 2026) come the findings set out here.

One assay has as its target T1, human LILRB1 (human, UniProt Q8NHL6 24-458, limits assumed).
T1 construct: also called hLILRB1
The assay is described as follows: Octet off-rate ranking.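 Further: antibody dissociation rate constants against cynomolgus LILRB2 plus human LILRB1, LILRB2, LILRA1 and LILRA2, measured on an Octet instrument to rank binding.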 For orientation: In BLI a coated tip is dipped into the sample, and binding shifts an interference pattern.

The target in assay [1] is T2, human LILRA1 (human, UniProt O75019 17-461, limits assumed).
T2 construct: also called hLILRA1
Description: Octet off-rate ranking.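 Further: antibody dissociation rate constants against cynomolgus LILRB2 plus human LILRB1, LILRB2, LILRA1 and LILRA2, measured on an Octet instrument to rank binding.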
T2 sequence (O75019 17-461 limits assumed): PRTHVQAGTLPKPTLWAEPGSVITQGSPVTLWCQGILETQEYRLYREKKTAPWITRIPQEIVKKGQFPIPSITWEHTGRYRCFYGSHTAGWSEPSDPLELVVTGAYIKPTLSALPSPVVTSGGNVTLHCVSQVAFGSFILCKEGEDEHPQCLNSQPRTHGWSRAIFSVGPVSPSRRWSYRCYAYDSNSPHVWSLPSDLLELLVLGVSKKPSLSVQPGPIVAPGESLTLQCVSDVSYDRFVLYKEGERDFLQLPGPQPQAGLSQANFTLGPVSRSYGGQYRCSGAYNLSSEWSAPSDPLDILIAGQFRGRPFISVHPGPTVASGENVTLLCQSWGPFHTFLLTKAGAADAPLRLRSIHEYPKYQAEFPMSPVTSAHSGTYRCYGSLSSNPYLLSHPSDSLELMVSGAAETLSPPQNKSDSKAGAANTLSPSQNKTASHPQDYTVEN
Description: Binding affinity of anti-LILRB1 and anti-LILRB2 antibodies against human LILRB1, LILRB2, LILRA1, LILRA2 and cynomolgus LILRB2 was ranked by measuring dissociation rate constant (Kdis) using the Octet system.

The target of assay [2] is T3, Biotinylated LILRB1 (UniProt Q8NHL6 24-458, limits assumed, biotinylated (sites not given)). The assay is described as follows: epitope binning ELISA, coated 1 ug/ml; competitor 15G8 at 20 ug/ml.
The target of assay [3] is T3, Biotinylated LILRB1. Description: epitope binning ELISA, coated 1 ug/ml; competitor LK-RB1-9 at 20 ug/ml. Background: In an ELISA, binding on a coated surface is turned into a signal by an enzyme label.
Description: (§1) Binding epitope of a subset of anti-LILRB1 and anti-LILRB2 antibodies was analyzed by epitope binning ELISA. Briefly, a panel of testing antibodies were coated onto ELISA plate. 50 ul/well Biotinylated LILRB1 or LILRB2 and 50 ul/well of competing antibodies were added to the coated plate and incubated at 37° C. for 1 hour. After Streptavidin-HRP (1:5000) incubation and TMB development, the plates were read at 450 nm using Molecular device spectra max plus384.
In assay [4] the target is T3, Biotinylated LILRB1. The assay is described as follows: epitope binning ELISA, coated 1 ug/ml; competitor LK-RB1-12 at 20 ug/ml.
Description: as §1
In assay [5] the target is T3, Biotinylated LILRB1. Description: epitope binning ELISA, coated 1 ug/ml; competitor LK-RB1-16 at 20 ug/ml.
Description: as §1
The target of assay [6] is T3, Biotinylated LILRB1. The assay is described as follows: epitope binning ELISA, coated 1 ug/ml; competitor LK-RB1-31 at 20 ug/ml.
Description: as §1
Assay [7] addresses T3, Biotinylated LILRB1. The assay is described as follows: epitope binning ELISA, coated 1 ug/ml; competitor LK-RB1-33 at 20 ug/ml.
Description: as §1
In assay [8] the target is T3, Biotinylated LILRB1. The assay is described as follows: epitope binning ELISA, coated 1 ug/ml; competitor LK-RB1-47 at 20 ug/ml.
Description: as §1
In assay [9] the target is T3, Biotinylated LILRB1. The assay is described as follows: epitope binning ELISA, coated 1 ug/ml; competitor hz73D1.v1 at 20 ug/ml.
Description: as §1
The next assay has as its target T4, human LILRB1 Variant 2 (human, UniProt Q8NHL6 24-458, limits assumed).
T4 construct: protein bought from Kactusbio, LLC (Cat: LIL-HM2V1 and LIL-HM2V2 for Variant 2 and 3)
Description: ELISA (FIG. 12B).

Another assay has as its target T5, human LILRB1 Variant 3 (human, UniProt Q8NHL6 24-458, limits assumed).
T5 construct: protein bought from Kactusbio, LLC
Description: ELISA (FIG. 12C).

The target in the next assay is T6, human LILRA3 (human, UniProt Q8N6C8 24-439).
T6 construct: bought protein coated for ELISA; also called hLILRA3
The assay is described as follows: ELISA, OD450, antibody at 200 nM; + = 2-fold over ISO.

Another assay deals with T7, human LILRA2 (human, UniProt Q8N149 24-449).
T7 construct: bought protein coated for ELISA; also called hLILRA2
The assay is described as above.

The next assay addresses T8, human LILRB3 (human, UniProt O75022 24-443).
T8 construct: bought protein coated for ELISA; also called hLILRB3
Described as above.

A further assay deals with T9, human LILRB5 (human, UniProt O75023 24-458).
T9 construct: bought protein coated for ELISA; also called hLILRB5
The description is as above.

Assay [10] concerns the target T10, human LILRA1 (human, UniProt O75019 17-461, limits assumed).
T10 construct: bought protein coated for ELISA; also called hLILRA1
The assay is described as above.
T10 sequence (O75019 17-461 limits assumed): as above
Description: (§2) To further confirm binding affinity, selected clones were assayed in ELISA or FACS in a range of testing concentrations.

Assay [11] addresses T11, human LILRA1 (human, UniProt O75019 17-461, limits assumed).
T11 construct: Bought protein; also called hLILRA1
Description: ELISA, antibody at 200 nM, OD450; + = 2-fold over ISO.
T11 sequence (O75019 17-461 limits assumed): as above
Description: as §2

The target of a further assay is T12, human LILRB4 (human, UniProt Q8NHJ6 22-259).
T12 construct: Bought protein; also called hLILRB4
The description is as above.

T7 sequence (Q8N149 24-449 limits assumed): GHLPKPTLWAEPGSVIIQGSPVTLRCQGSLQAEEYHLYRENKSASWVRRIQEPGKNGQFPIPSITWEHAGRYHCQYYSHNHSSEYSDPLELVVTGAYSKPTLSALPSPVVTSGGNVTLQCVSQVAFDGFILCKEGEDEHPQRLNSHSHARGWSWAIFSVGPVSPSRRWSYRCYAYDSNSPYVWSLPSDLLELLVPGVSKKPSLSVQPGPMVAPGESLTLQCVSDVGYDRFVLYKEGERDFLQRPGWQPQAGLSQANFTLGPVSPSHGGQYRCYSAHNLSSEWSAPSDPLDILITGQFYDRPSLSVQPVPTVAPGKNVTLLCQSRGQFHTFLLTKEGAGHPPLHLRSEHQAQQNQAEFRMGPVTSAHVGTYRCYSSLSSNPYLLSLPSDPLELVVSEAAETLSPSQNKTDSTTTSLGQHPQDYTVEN
T3 sequence (Q8NHL6 24-458 limits assumed): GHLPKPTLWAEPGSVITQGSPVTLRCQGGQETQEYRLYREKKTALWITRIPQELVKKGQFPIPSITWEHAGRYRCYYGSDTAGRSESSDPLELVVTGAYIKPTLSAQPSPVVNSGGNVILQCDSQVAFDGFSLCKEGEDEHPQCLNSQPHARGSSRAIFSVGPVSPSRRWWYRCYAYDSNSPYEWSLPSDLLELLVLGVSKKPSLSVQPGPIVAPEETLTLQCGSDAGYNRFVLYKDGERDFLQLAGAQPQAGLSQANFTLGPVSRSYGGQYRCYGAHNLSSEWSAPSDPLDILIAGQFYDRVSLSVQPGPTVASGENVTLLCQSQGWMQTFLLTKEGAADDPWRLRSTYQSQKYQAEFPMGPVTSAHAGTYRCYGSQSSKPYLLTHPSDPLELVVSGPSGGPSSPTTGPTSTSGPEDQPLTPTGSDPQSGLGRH
T6 sequence (Q8N6C8 24-439 limits assumed): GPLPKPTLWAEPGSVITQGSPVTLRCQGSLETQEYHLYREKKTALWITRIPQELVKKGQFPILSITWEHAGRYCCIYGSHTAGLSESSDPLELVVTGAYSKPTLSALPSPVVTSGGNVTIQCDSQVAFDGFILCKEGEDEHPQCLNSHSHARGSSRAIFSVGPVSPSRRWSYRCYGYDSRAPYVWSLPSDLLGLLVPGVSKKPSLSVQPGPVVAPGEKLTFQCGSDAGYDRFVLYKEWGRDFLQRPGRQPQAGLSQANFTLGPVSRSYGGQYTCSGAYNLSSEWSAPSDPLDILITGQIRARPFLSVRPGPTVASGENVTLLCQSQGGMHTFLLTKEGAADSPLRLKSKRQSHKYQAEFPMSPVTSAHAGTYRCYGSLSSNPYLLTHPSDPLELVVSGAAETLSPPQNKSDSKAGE
T4 sequence (Q8NHL6 other isoform, or with tags, fused parts or gaps mutant limits assumed): as the sequence (Q8NHL6 24-458 limits assumed) above, with L45P, A70T, I119T, S132I counted along it
T5 sequence (Q8NHL6 other isoform, or with tags, fused parts or gaps mutant limits assumed): as the sequence (Q8NHL6 24-458 limits assumed) above, with L45P, I119T, S132I counted along it
T9 sequence (O75023 24-458 limits assumed): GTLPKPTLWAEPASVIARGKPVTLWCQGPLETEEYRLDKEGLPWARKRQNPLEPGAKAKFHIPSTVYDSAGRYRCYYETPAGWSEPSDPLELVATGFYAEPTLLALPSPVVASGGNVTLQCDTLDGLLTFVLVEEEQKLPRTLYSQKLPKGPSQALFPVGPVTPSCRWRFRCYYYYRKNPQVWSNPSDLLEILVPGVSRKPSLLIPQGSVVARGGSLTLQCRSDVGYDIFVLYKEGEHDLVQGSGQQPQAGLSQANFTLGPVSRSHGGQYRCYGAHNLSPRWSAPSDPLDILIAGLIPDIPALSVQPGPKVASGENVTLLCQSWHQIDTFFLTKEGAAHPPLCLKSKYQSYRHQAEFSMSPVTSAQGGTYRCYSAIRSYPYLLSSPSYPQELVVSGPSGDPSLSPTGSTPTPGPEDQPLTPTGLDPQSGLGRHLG
T1 sequence (Q8NHL6 24-458 limits assumed): as the sequence (Q8NHL6 24-458 limits assumed) above
Description for human LILRA2: as §2
Description for human LILRA3: as §2
Description for human LILRB3: as §2
Description for human LILRB4: as §2
Description for human LILRB5: as §2

B1: hz73D1.v1 (antibody, human IgG4 S228P, kappa, V domains shown)
VH: QVQLVQSGAEVKKPGASVKVSCKASGYTFTDYYINWVRQAPGQGLEWMGNVNPNDGGTTYNQKFKGRVTMTTDTSTSTAYMELRSLRSDDTAVYYCARREIYFYGTIYYYAMDYWGQGTLVTVSS
VL: DIQLTQSPSFLSASVGDRVTITCRASESVDYYGNSFMYWYQQKPGKAPKLLIYFASNLESGVPSRFSGSGSGTEFTLTISSLQPEDFATYYCQQNNEDPWTFGGGTKVEIKR
As a reminder, the koff is the rate constant with which the complex falls apart. Low readings indicate slow dissociation, high ones fast dissociation. With B1, the dissociation rate constant (koff) with human LILRB1 amounted to 5.18e-05 s⁻¹; in the assay with human LILRA1 [1] it was 7.52e-06 s⁻¹. The Inhibition % in the assay with Biotinylated LILRB1 [2] was -3.83%; with Biotinylated LILRB1 [3], 57.4%; with Biotinylated LILRB1 [4], 82.8%; in the assay with Biotinylated LILRB1 [5], 61.2%; in the assay with Biotinylated LILRB1 [6], 41.6%; with Biotinylated LILRB1 [7], 23.5%. In addition, the Inhibition % with Biotinylated LILRB1 [8] was 46.9%; in the assay with Biotinylated LILRB1 [9] it was 31.4%.

B2: LK-RB1-16.h3 (antibody, human IgG4, kappa, V domains shown)
VH: QVQLQESGPGLVKPSETLSLTCTVSGFSLISNAISWIRQPPGKGLEWLGVIWGDGNTIYHSALRSRLTISKDTSKNQVFLKLSSVTAADTAVYYCAKANWDGYYFDYWGQGTTVTVSS
VL: DIQMTQSPSTLSASVGDRVTITCHASQSVDFWLNWYQQKPGKAPKLLISKASNLHTGVPSRFSGSGSGTEFTLTISSLQPDDFATYYCQQGQSYPLTFGQGTKLEIKR
notes: humanized LK-RB1-16
For the molecule B2, the binding result in the assay with human LILRB1 Variant 2 and with human LILRB1 Variant 3 was “binds” each time.

B3: LK-RB1-9.h1 (antibody, human IgG4, kappa, V domains shown)
VH: QVQLVQSGSELKKPGASVKVSCKASGYTFTTYGMSWVRQAPGQGLEWMGWINTYSGVPTYADDFKGRFVFSLDTSVSTAYLQISSLKAEDTAVYYCARRRRTYHGYLSFDYWGQGTTVTVSS
VL: DIQMTQSPSSLSASVGDRVTITCETSENIYGALNWYQQKPGKAPKLLIYGATNLAEGVPSRFSGSGSGTDFTFTISSLQPEDIATYYCQNVLNTPWTFGGGTKLEIKR
notes: humanized LK-RB1-9
As for B3, the binding result in the assay with human LILRB1 Variant 2 and in the assay with human LILRB1 Variant 3 was “binds” in each case.

B4: LK-RB1-3 (antibody, human IgG4 S228P, kappa, V domains shown)
VH: QVQLQQPGAELVKPGTSVNLSCKASGYTFTSYWIHWVKQRPGRGLEWIGRINPYSSGTRYNEKFKNKATLTVDKPSSTAYMQLTSLTSEDSAVYYCARFDGAPDYFDFWGQGTTLTVSS
VL: DIVMTQSQKFMPTSVGDRVNVTCKASQNVGINVAWYQQKLGQSPKALIYSASYRYSGVPDRFTGSGSGTDFTLTINSVQSEDLADYFCQQYNNYPFTFGSGTKLEIKR
notes: anti-LILRB1 antibody
Consider B4, for which the binding result in the assay with human LILRA3 is given as “binds”.

B5: LK-RB1-33 (antibody, human IgG4 S228P, kappa, V domains shown)
VH: QIQLVQSGPELKKPGDTVKISCKASGYTFTSYGMNWVKQAPGEGLKWMGWINTYSGVPTYGDDFKGRFAFSLETSASTAYLQINNLENEDTATYFCARRGRDSVVGHFDVWGTGTTVTVSS
VL: DIVMTQSHKFMSTSVGDRVSITCKASQDVNTAVAWYQQKPGQSPKLLIYWASTRHTGVPDRFTGSGSGTDFTLTISSVQAEDLALYYCQQHYTIPFTFGSGTRLEIKR
notes: anti-LILRB1 clone from mouse hybridoma
Consider B5, for which the binding result in the assay with human LILRA2 is “binds”.

B6: LK-RB1-35 (antibody, human IgG4 S228P, kappa, V domains shown)
VH: DVQLQESGPGLEKPSQSLSLTCSVTGYSITRGYQWNWIRQFPGNKLEWMGYISYDGSNNYNPSLKNRISITRDASKNQFFLKLNSVTTEDTATYYCARRSYNSIDYWGQGTTLTVSS
VL: DIVLTQSPATLSVTPGDSVSLSCRASQSISSNLHWYQQKSHESPRLLIKYASQSISGIPSRFSGSGSGTDFTLSINSVETEDFGMYFCQQSNSWPLTFGAGTKLELKR
notes: as for B5
For the molecule B6, the binding result in the assay with human LILRB3 and with human LILRB5 was “binds” in each case.

B7: LK-RB1-36 (antibody, human IgG4 S228P, kappa, V domains shown)
VH: DVQLQESGPGLEKPSQSLSLTCSVTGYSITRGYQWNWIRQFPGNKLEWMGYISYDGSNNYNPSLKNRISIIRDTSKNQFFLKLNSVTTEDTATYYCARRSYNSIDYWGQGTTLTVSS
VL: DIVLTQSPATLSVTPGDSVSLSCRASQSISNNLHWYQQKSHESPRLLIKYASQSISGIPSRFSGSGSGTDFTLSINSVETEDFGMYFCQQSNSWPLTFGAGTKLELKR
notes: as for B5
On to B7, for which the binding result with human LILRB3 and with human LILRB5 was “binds” throughout.

B8: LK-RB1-59 (antibody, human IgG4 S228P, kappa, V domains shown)
VH: QIQLVQSGPELKKPGETVKISCKASGYTFTTYGMSWVKQAPGKGLKWMGWINTYSGVPTYADDFKGRFAFSLETSASTAYLQINNLKNEDTATYFCARRRIYYGNKGYAMDYWGQGTSVTVSS
VL: DIQMTQSPASLSVSVGETVTITCRASENIYSNLVWYQQKQGKSPQLLVYTATNLADGVPSRFSGSGSGTQFSLKINSLQSEDFGSYYCQHFWGTPWTFGGGTKLEIKR
notes: as for B5
Consider B8, for which the binding result with human LILRA1 [10] and with human LILRA2 was “binds” in each case.

B9: LK-RB1-47 (antibody, human IgG4 S228P, kappa, V domains shown)
VH: QIQLVQSGPELKKPGETVKISCKASGYTFTTYGMSWVKQAPGKGLKWMGWINTYSGVPTYTDDFKGRFAFSVETSASTAYLQINNLKNEDTATYFCARRERDFYGNIFFPYWGQGSLVTVSA
VL: DIQMTQTTSSLSASLGDRVTISCRASQDISNYLNWYQQKPDGTVKLLIYYTSRIHSGVPSRFSGSGSGTDFSLTISNLDQEDIATYFCQQGHTLPWTFGGGTKVEIKR
notes: as for B5
As for B9, the binding result with human LILRA1 [10] and with human LILRA2 was “binds” in each case.

B10: LK-RB2-12 (antibody, human IgG4 S228P, kappa, V domains shown)
VH: QIQLVQSGPELKKPGETVKISCKASGYTFTTYGMSWVKQTPGKGLKWMGWINIYSGVPTYADDFKGRFVFSLEISASTAHLQINNLKNEDTATYFCARRKDYSGHCFDYWGQGTTLTVSS
VL: DIVLTQSPASLAVSPGQRATISCRASESVDTYGISFMHWYQQKPGQPPKLLIYRASNLESGIPARFSGSGSRTDFTLTINPVETDDVAIYYCQQSKKDPYTFGGGTKLEIKR
On to B10, for which the binding result with human LILRA1 [11] and with human LILRB4 was “binds” each time.

B11: LK-RB2-15 (antibody, human IgG4 S228P, kappa, V domains shown)
VH: QIQLVQSGPELKKPGETVKISCKASGYTFTTYGMSWVKQAPGKGLKWMGWINVYSGVPTYADDFKGRFAFSLEISASTAYLQINNLKDEDTATYFCARRKDYSGHCFDYWGQGTTLTVSS
VL: DIVLTQSPASLAVSLGQRATFSCRASESVDTYGISFMHWYQQKPGQPPKLLIYRASNLESGIPARFSGSGSRTDFTLTINPVETDDVATYYCQQSKKEPYTFGGGTKLEIKR
Consider B11, for which the binding result in the assay with human LILRA1 [11] and with human LILRB4 was “binds” throughout.

B12: LK-RB2-24 (antibody, human IgG4 S228P, kappa, V domains shown)
VH: QIQLVQSGPEVKKPGETVKISCKASGYTFTTYGMSWVKQAPGKGLKWMGWLNIYSGVPAYADDFKGRFAFSLESSASTAYLQINNLKNEDTATYFCARRENYDGYGMDYWGQGTSVTVSS
VL: DIVMTQSPATLSVTPGDRVSLSCRASQSISDYLHWYQQKSHESPRLLIKYASQSISGIPSRFSGSGSGSDFTLSINSVEPEDVGVYYCQNGHSFPYTFGGGTKLEIKR
For B12, in the assay with human LILRA1 [11], the binding result was “binds”.

B13: LK-RB1-4 (antibody, human IgG4 S228P, kappa, V domains shown)
VH: QVQLQQPGAELVKPGASVKLPCKTSGYTFTSYWMHWVKQRPGRGLEWIGRIDPHYSGTKYNEKFKNKATMTVDTPSSTAYMQLSSLTSEDSAVYYCARFDGDPYYFDYWGPGTTLTVSS
VL: DIVMTQSQKFMSTSVGDRVSVTCKASQNVGTNVAWYKQKAGQSPKAVIYSASYRYSGVPDRFTGSGSGTDFTLSISNVQSEDLAEYFCQQYNNNPFTFGSGTKLEIKR
notes: anti-LILRB1 antibody
With B13, the binding result in the assay with human LILRA3 is on record as “binds”.
